Data from patent publication US20170369592A1, “NOVEL ANTI-FIBROBLAST ACTIVATION PROTEIN (FAP) ANTIBODIES AND USES DERIVED THEREOF” (Mabimmune Diagnostics AG, priority 2015, published 2017).

Assays:
[1] = test system: obstructive human coronary thrombi and aortic atherosclerotic plaque; experiment: Confocal immunofluorescence on coronary thrombi and atherosclerotic plaque; settings: Cyanine 3 labelled antibody
Description: NI-206.82C2 was labelled with Cyanine 3 for fluorescent imaging (Cy3 conjugation kit: Innova Biosciences, 340-0030) and antibody labelling was validated using a spectophotometer. Cryosections from myocardial infarction causing obstructive human coronary thrombi (FIG. 14, A) and human aortic atherosclerotic plaque (FIG. 14, B) were fixed for 5 minutes in ice cold acetone and allowed to dry for 10 minutes before washing in PBS. The sections were then incubated for 1 hr at room temperature in 5% BSA in PBS, and then incubated with Cyanine 3 labelled antibodies overnight at 4° C., before washing three times in PBS before incubation with DAPI at 0.5 μg/mL. Sections were then washed three additional times in PBS and mounted in Lisbeth's mounting medium before imaging on a SP8 confocal microscope (Leica Microsystems).

FAP = molecular target: T1, FAP (Homo sapiens, UniProt Q12884); experiment: Binding specificity ELISA versus CD26 and unrelated human antigens; settings: detection antibody at 20, 4 and 0.8 nM
T1 sequence (Q12884 1-760): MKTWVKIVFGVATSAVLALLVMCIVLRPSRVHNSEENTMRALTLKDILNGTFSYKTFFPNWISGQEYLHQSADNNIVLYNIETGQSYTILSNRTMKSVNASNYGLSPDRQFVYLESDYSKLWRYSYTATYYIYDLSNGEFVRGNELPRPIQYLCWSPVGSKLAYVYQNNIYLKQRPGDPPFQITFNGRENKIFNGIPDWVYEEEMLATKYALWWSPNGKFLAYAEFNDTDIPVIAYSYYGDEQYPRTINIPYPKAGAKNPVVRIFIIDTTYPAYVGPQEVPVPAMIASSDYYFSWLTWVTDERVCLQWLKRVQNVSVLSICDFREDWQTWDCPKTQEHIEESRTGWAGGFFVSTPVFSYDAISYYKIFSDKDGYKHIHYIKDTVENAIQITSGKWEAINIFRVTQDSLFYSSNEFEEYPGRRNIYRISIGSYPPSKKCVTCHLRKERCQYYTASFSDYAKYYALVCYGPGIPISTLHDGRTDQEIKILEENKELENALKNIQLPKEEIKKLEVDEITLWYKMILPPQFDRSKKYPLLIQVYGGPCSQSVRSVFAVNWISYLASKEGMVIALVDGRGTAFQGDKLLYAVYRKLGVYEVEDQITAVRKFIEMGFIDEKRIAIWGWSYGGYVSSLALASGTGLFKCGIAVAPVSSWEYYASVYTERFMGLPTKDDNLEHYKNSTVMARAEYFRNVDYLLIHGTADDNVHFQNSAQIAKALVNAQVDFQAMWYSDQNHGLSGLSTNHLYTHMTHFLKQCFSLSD
Description: A mouse anti-6×-histidine tag antibody (Clonetech) was coated at a concentration of 3 μg/ml in PBS to a 96 well ELISA plate, the plates were then blocked with 5% BSA in PBS, and enzymatically active recombinant human FAP with an N-terminus 6× histidine tag was added to the plates to be captured. The binding efficiency of NI-206.82C2 (at 20 nM, 4 nM, and 0.8 nM) against sFAP was then tested by 1 hour incubation, followed by washing with PBS and detection with an HRP-labelled goat anti-human antibody (Jackson Immunoresearch) using a colormetric assay. To assess NI-206.82C2 binding other targets, recombinant human CD26 and fourteen other unrelated recombinant human proteins (A-N) were individually added to a 96-well ELISA plate in triplicate, and the binding efficacy of NI-206.82C2 was evaluated. (FIG. 7A)

[2] = test system: carotid artery photochemical injury-induced thrombosis; experiment: Carotid artery photochemical injury-induced thrombosis model; type: in vivo, mouse; settings: 95% confidence interval=0.01-0.16, p<0.0001
Description: The carotid artery photochemical injury-induced thrombosis model begins with anesthesia by intraperitoneal injection of sodium pentobarbital (87 mg/kg body weight). After slight tail warming (using warm water) rose bengal (10 mg/mL in PBS) is injected into the tail vein in a volume of 0.12 mL at a concentration of 50 mg/kg. Mice will then be secured in a supine position (with the head pointing towards the operator) and placed on a heating pad (rectal temperature will be monitored) under a dissecting microscope. Following a (2.5-3 cm) midline cervical incision and a small incision of the larynx to provide a tracheostoma, by blunt preparation the right common carotid artery is exposed and cleared of connective tissue. A surgical stitch is employed to fix the stemocleidomastoid muscle aside to the right and increase access area to the right carotid artery. Care must be taken to avoid excessive vessel manipulation during procedures. […] Flow will be measured during these 60 minutes and for further 60 minutes (max time elapse 120 minutes) or until occlusion occurs. […]
Mice will be placed on a heating pad, to avoid a drop of body temperature. Heart rate (probe measuring the blood flow will also measure the heart rate) will be monitored during the surgery. […]

B1: NI-206.82C2: recombinant human memory B cell-derived monoclonal anti-FAP IgG1 antibody, variable regions in FIG. 1A, FAP inhibitory (antibody, V domains shown)
VH: QVQLQQSGPGLVKPSQTLSLTCAISGDSVSSNSVTWNWIRQSPSRGLEWLGRTYYRSKWYNDYAVSVKGRITINPDTSKNQFYLQLKSVTPEDAAVYYCARDSSILYGDYWGQGTLVTVSS
VL: QAVLTQPSSLSASPGASASLTCTLPSGINVGTYRIFWFQQKPGSPPQYLLSYKSDSDNHQGSGVPSRFSGSKDASANAGILLISGLQSEDEADYYCMIWHSSAWVFGGGTKLTVL
In the case of B1, the “binding to obstructive human coronary thrombi and aortic atherosclerotic plaque” value [1] is reported as “binds”, the “colorimetric signal against recombinant human FAP versus CD26 and unrelated human antigens” value (FAP) is reported as “significantly greater” and the “Log-rank hazard ratio, arterial occlusion versus 43A11” value [2] is reported as 0.04.
